No end group written: not given here.
Legend:
[1] = target: Rgg144 (recombinant, Streptococcus pneumoniae D39, SPD_0144) (Streptococcus pneumoniae D39); assay: SEC
[2] = target: Rgg144 (recombinant, Streptococcus pneumoniae D39, SPD_0144) (Streptococcus pneumoniae D39); assay: fluorescence polarisation

| Molecule | Kd [2] [µM] | further results |
| --- | --- | --- |
| Rgg144 (recombinant, Streptococcus pneumoniae D39, SPD_0144) (natural protein) | – | stoichiometry N [1]: 2 |
| SEWAIVIPFLTNL (also: FITC label, position not given here) [FITC-labeled SHP144 V17A] | 9.7 | – |
| SEWVIAIPFLTNL (also: FITC label, position not given here) [FITC-labeled SHP144 V19A] | 4 | – |
| SAWVIVIPFLTNL (also: FITC label, position not given here) [FITC-labeled SHP144 E15A] | 3.3 | – |
| SEWVIVIPFLANL (also: FITC label, position not given here) [FITC-labeled SHP144 T24A] | 3.3 | – |
| SEWVIVIPFLTNL (also: FITC label, position not given here) [FITC-labeled SHP144 (SHP144-C13), wild type] | 6.6 | – |
| SEWVIVIPFLTNA (also: FITC label, position not given here) [FITC-labeled SHP144 L26A] | 3.4 | – |
| AEWVIVIPFLTNL (also: FITC label, position not given here) [FITC-labeled SHP144 S14A] | 8.1 | – |
| SEWVIVIPFLTAL (also: FITC label, position not given here) [FITC-labeled SHP144 N25A] | 3.3 | – |
| SEWVIVAPFLTNL (also: FITC label, position not given here) [FITC-labeled SHP144 I20A] | 23.5 | – |
| SEWVIVIPFATNL (also: FITC label, position not given here) [FITC-labeled SHP144 L23A] | 4.3 | – |
| SEWVAVIPFLTNL (also: FITC label, position not given here) [FITC-labeled SHP144 I18A] | > 100 | – |
| SEWVIVIAFLTNL (also: FITC label, position not given here) [FITC-labeled SHP144 P21A] | 1.7 | – |
| SEWVIVIPALTNL (also: FITC label, position not given here) [FITC-labeled SHP144 F22A] | 7.1 | – |
| SEWVIVIPFLTNL [unlabeled SHP144 (13-residue synthetic peptide, wild type)] | – | IC50 [2]: 86.8 µM |
| SEAVIVIPFLTNL (also: FITC label, position not given here) [FITC-labeled SHP144 W16A] | 50 | – |

Reference: publication PMC9233744
